Measurements from the supplement of paper PMC9170038.

Test system: MS2 coat protein
Test: apparent KD of MS2 coat protein, switch OFF state (with FMN for OFF switches, without FMN for ON switches); designed switch direction (-1 OFF switch, 1 ON switch): 1; higher = weaker reporter binding
Details: FMN input: 0 or 200 uM; Eterna round: R93 (includes R88 designs)
Outline: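 Apparent KD stands for the median, per design, of fits to normalised cluster binding curves. The curves came from titrating on-chip-transcribed RNA switches on Illumina sequencing clusters with SNAP-549-labelled MS2 coat protein, twofold from 0.7 or 1.5 nM to 3 µM. Buffer was 100 mM Tris-HCl pH 7.5, 80 mM KCl, 4 mM MgCl2, without or with constant ligand.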

| Sequence | apparent KD of MS2 coat protein [µM] |
| --- | --- |
| GGGAGGAAGAGAGAGGAUAUCCAAAGGAAAACAUGAGGAUCACCCAUGUAAAAGGUAGGAAAUUGGGAGAAGGCUCAAGAGAAUG [salish99-ss2-055] | 0.0283 |
| UAAGUACAUGAGGAUCACCCAUGUUGGAAUAGAGCAGGAUAUGUGCAGAGGGAAAUAAAAACAGAAGGGCUAAGAA [Same State #3] | 0.033 |
| UGCCAAUUGGCACAGGAUAUGAGCAUGCUCACAUGAGGAUCACCCAUGUGAUUACCAACGCAAUAUCAGAAGGGUGCCCUCGUCA [Relageor] | 0.0504 |
| UAGGGAACAGGGUAGGAUAUGCAUGGUCGUACAUGAGGAUCACCCAUGUAGCCUAGAAAAUAAAUGCAGAAGGGCCAAAAGAAAA [Raritea] | 0.0671 |
| AACGAACAUGAGGAUCACCCAUGUUCCAACAGUUGAGGAUAUGUGGGUGAAAAUAGCACGGCAGAAGGCGAGUGUA [SameState1 Malc#21] | 0.0498 |
| CGGCUACAUGAGGAUCACCCAUGUCAGCCGAGGGCAGGAUAUGCGGUUCAUUCUCAAGCAGCAGAAGGGUCAAAAG [Onmabiat] | 0.00883 |
| GGAAAACAUGAGGAUCACCCAUGUGAAAACGUGGGAGGAUAUGCAUGGAAACCAUACUGUGCAGAAGGCCCAUGUC [EteRNA is fun!] | 0.0594 |
| AGAAAACAUGAGGAUCACCCAUGUAGGAAUAUGGGAGGAUAUACAAAGACGAAAGUCAGAGUAGAAGGCCUAAAAA [salish99-SS1-086] | 0.0923 |
| GAAAAACAUGAGGAUCACCCAUGUAGAAAUAUGGGAGGAUAUACGAAGACGAAAGUCGAAGUAGAAGGCCUAAAAG [Mat - Same State 1 - Eli mod - D24] | 0.0849 |
| AUAUAAAUAAGCUAGGAUAUACUAAAGUAAACAUGAGGAUCACCCAUGUGAAGAAAGAAACUCAUGUAGAAGGAGCAUAUAUAUA [viburnum 3] | 0.185 |
| GAUAGACAUGAGGAUCACCCAUGUAGAAUUAUGGGAGGAUAUACAAAGACGAGAGUCAGAGUAGAAGGCCUAGGAA [salish99-ss1-156] | 0.0646 |
| GUAGAACAUGAGGAUCACCCAUGUGAAGACGCAUGAGGAUAUAUAAGUAAAUAGCAUAAGAUAGAAGGCAUGAUAA [JR_SS001_Sub1702] | 0.113 |
| GAAAAACAUGAGGAUCACCCAUGUAGAAACAUGGGAGGAUAUACAAAGACGAAAGUCAAAGUAGAAGGCCUAAAAG [Mat - Same State 1 - Mod - D159] | 0.119 |
| AAGAAACAUGAGGAUCACCCAUGUAGAAAUAUGGGAGGAUAUACGAAGACGAAAGUCAAAGUAGAAGGCCUAAAGA [Mat - Same State 1 - Eli mod - D106] | 0.0615 |
| CACAGAGUGGCGUAGGAUAUGUACAUGAGUACAUGAGGAUCACCCAUGUGGGCGUGAAAUUACGAGCAGAAGGGCGUCGCCUGUG [Edradi] | 0.135 |
| GGGAAGAAGAGAGAGGAUAUCCAAAGGAAAACAUGAGGAUCACCCAUGUAAAAGGUAGGAAAUUGGGAGAAGGCUCAAAAGAGAG [salish99-ss2-034] | 0.0408 |
| GCGGUGCAGGUACAGGAUAUGUUGCUCGUAACAUGAGGAUCACCCAUGUACCUAUGAGAUUAAAUGCAGAAGGGUGCACACCACG [Oneratle] | 0.574 |
| AGAAAUAAACCUCAGGAUAUGGGUAAAUAAACAUGAGGAUCACCCAUGUAAAAGAAAAUAAAAAACCAGAAGGGAGAAAAUAAGA [Designing denovo 1] | 0.0241 |
| AACUAACAUGAGGAUCACCCAUGUUACAGCAGUUGAGGAUAUGUGGGUGAAAAUAGCACGGCAGAAGGCGAGUGUA [SameState1 Malc#23] | 0.15 |
| AAUAAGACUAGCAAGGAUAUCGAAAACGAGACAUGAGGAUCACCCAUGUAACAAGUAAAAGUAAACGAGAAGGUGCAGGGUGAAA [JR_SS002_Sub301] | 0.08 |
| AACGAACAUGAGGAUCACCCAUGUUCCAGCAGUUGAGGAUAUGUGGGUGAAAAUAGCACGGCAGAAGGCGAGUGUA [SameState1 Malc#22] | 0.0821 |
| AUGAAUAGCCUCGAGGAUAUCCAGUCAUGCACAUGAGGAUCACCCAUGUAAGAGAGAGUAUAAUGGGAGAAGGCGAGUUCUCGGU [JR_SS002_Sub1705] | 0.0722 |

| Sequence | apparent KD of MS2 coat protein [µM] |
| --- | --- |
| AUAAAACAUGAGGAUCACCCAUGUAGAAAUAUGGGAGGAUAUACUAGAUCGAAAGAUCUAGUAGAAGGCCUCAAAG [JL Mod of Eli 2] | 0.0589 |
| AAAACACAUGAGGAUCACCCAUGUAAAAACAAGAGAGGAUAUGCUUGGAAAACAUGCUAUGCAGAAGGCUCAAGUG [SS1 - 10] | 0.0245 |
| AUAAAACAUGAGGAUCACCCAUGUAGACAUAUGGGAGGAUAUACUAGAUCGAAAGAUCUAGUAGAAGGUCUUAAAA [JL Mod of Eli 10] | 0.183 |
| AAAAACAUGGUGUAGGAUAUAUUAAUAGUCACAUGAGGAUCACCCAUGUUCAGAUAUCUGAACGAGUAGAAGGACGAUGAAAAAA [Mat - Same state - Malcolm Mod - D109] | 0.349 |
| AAAAAACAUGAGGAUCACCCAUGUCAAAAGACAUGAGGAUAUGUGUGGAAACCAUACUAUACAGAAGGCAUAAAAA [SS1 - 1008] | 0.159 |
| AGAAAUAAAAGACAGGAUAUCCAAAAGAAAACAUGAGGAUCACCCAUGUAAAGAAAAUAAAAAUGGGAGAAGGGUCAAAUAAAAA [Mat - Same State 2 - JL mod - D49] | 0.0339 |
| UGGAGACAUGAGGAUCACCCAUGUGAGAAGAGGCGAGGAUAUCGAAAAAAAAAAAAAAAACGAGAAGGCGCGAGAU [salish99-SS1-008] | 0.0221 |
| GAGGACAUAGUAUAGGAUAUAUGAAUAGUUACAUGAGGAUCACCCAUGUGCAUUUAUAUGCGAACAUAGAAGGGUGGUAGUUAUC [SameState2 Malc#31] | 0.0751 |
| AAAAGACAUGAGGAUCACCCAUGUCAAAACGUAGGAGGAUAUGUCUUGAAAAAAGACUUGACAGAAGGCCUGUGUC [SS1 - 54] | 0.017 |
| CGGAGACAUGAGGAUCACCCAUGUGAGAAGAGGCGAGGAUAUCGAAAGAAAGAAGAGAAACGAGAAGGCGCGAGUU [salish99-SS1-070] | 0.0345 |
| GGUACAGCUAGUUAGGAUAUCAGGUGUAAGACAUGAGGAUCACCCAUGUCCUAAGAACAGGUAACUGAGAAGGAACAGGGCGUCC [JR_SS002_Sub415] | 0.09 |
| AGAAAAGAAAGUAAGGAUAUGCAUAAUAAAACAUGAGGAUCACCCAUGUUAAAAAAAAGAUCAUGGUAGAAGGUACAAAAGAAAG [SS2 M 36] | 0.0123 |
| GAGGACAUAGUACAGGAUAUAUGAAUAGUUACAUGAGGAUCACCCAUGUGCAUUAAUAUGCGAACAUAGAAGGGUGGUAGUUAUC [Mat - Same state - Malcolm Mod - D128] | 0.0644 |
| AUAAAACAUGAGGAUCACCCAUGUCCGACAAAUCAAGGAUAUGAGAGCAAAACCAGGCUGUUAGAAGGUGAAAGAA [Atlausa] | 0.154 |
| UGGAGACAUGAGGAUCACCCAUGUGAGAAGAGGCGAGGAUAUCGAAAGAAAGAAGAGAAACGAGAAGGCGCGAGGC [salish99-SS1-047] | 0.0276 |
| AAAUAAAUGACUAAGGAUAUAUCAGAAAAAACAUGAGGAUCACCCAUGUAAUAAUAAAAAGGGUGAUAGAAGGUAGUCAACAAAC [74%, More Paria 4] | 0.118 |
| CUGAGGAAGAGAGAGGAUAUCCAAAGGAAAACAUGAGGAUCACCCAUGUAAAAGGUAGGAAAUUGGGAGAAGGCUCAAGAGAGAG [salish99-ss2-068] | 0.0343 |
| CGGAGACAUGAGGAUCACCCAUGUGAGAAGAGGCGAGGAUAUCGAAAGAAAGAAGAGAAACGAGAAGGCGCGAGGU [salish99-SS1-071] | 0.0345 |
| UGGAGACAUGAGGAUCACCCAUGUGAGAAGAGGCGAGGAUAUCGAAAGAAAGAAGAGAAACGAGAAGGCGCGAGUU [salish99-SS1-035] | 0.0416 |
| AAUCCACAUGAGGAUCACCCAUGUCAGGAAAUGACAGGAUAUAGCGAAAAAAAAAAAAAGCUAGAAGGGUCUAAUU [SameState1-cac2] | 0.107 |
| AGGAAACAUGAGGAUCACCCAUGUAAAAAUAUGGGAGGAUAUACGAAAAAAAAAAAAAAAGUAGAAGGCCUAAAAG [Garnet 10] | 0.231 |
| AAAAGACAUGAGGAUCACCCAUGUGAAAACGUACAAGGAUAUGUGUGGAAACCGUACUAUACAGAAGGUGUCUGUC [SS1 - 87] | 0.0302 |
